Measurements taken from patent US20240132578A1.

Legend:
Assay in all cases: cell-based or functional assay
[1] = target: HIV-1 Env of isolate MGRM-C-026 (subtype C), on pseudovirus (HIV-1)
[2] = target: HIV-1 Env of isolate MGRM-G-019 (subtype G) (HIV-1)
[3] = target: HIV-1 Env of isolate 92UG024 (HIV-1)
[4] = target: HIV-1 Env of isolate 98CN009 (HIV-1)
[5] = target: HIV-1 Env of isolate MGRM-G-013 (subtype G) (HIV-1)
[6] = target: HIV-1 Env of isolate MGRM-G-017 (subtype G) (HIV-1)
[7] = target: HIV-1 envelope glycoprotein (Env) of isolate MGRM-AE-008 (HIV-1)
[8] = target: HIV-1 Env of pseudovirus MGRM-F1-018 (HIV-1)

4993_K13 (PGT-141) (antibody), sequence (VH): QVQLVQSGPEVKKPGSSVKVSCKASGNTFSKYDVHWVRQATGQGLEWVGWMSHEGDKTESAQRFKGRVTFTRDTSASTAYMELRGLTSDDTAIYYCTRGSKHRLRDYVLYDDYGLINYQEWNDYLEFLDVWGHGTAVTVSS
4993_K13 (PGT-141) (antibody), sequence (VL): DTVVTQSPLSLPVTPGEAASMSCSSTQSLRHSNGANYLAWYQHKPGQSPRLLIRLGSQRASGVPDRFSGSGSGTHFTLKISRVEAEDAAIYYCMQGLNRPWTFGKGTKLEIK
4970_K22 (PGT-144) (antibody), sequence (VH): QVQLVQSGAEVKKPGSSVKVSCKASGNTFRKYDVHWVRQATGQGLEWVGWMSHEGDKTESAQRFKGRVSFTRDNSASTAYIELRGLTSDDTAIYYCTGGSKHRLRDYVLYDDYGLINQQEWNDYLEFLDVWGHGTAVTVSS
4970_K22 (PGT-144) (antibody), sequence (VL): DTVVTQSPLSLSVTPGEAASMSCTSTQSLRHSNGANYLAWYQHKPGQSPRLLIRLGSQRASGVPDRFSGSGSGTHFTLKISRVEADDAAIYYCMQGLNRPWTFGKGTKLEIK
4995_P16 (PGT-145) (antibody), sequence (VH): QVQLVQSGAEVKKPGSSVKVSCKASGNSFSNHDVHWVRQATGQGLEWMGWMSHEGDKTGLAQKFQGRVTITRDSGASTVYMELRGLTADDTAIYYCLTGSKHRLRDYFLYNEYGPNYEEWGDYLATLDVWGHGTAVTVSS
4995_P16 (PGT-145) (antibody), sequence (VL): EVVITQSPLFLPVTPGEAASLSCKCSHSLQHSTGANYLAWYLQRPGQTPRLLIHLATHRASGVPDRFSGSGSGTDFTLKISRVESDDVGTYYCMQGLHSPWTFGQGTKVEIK
4980_N08 (PGT-143) (antibody), sequence (VH): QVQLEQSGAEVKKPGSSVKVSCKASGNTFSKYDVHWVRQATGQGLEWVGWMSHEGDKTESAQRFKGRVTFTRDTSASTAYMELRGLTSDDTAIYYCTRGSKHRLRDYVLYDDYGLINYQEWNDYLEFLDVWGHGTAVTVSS
4980_N08 (PGT-143) (antibody), sequence (VL): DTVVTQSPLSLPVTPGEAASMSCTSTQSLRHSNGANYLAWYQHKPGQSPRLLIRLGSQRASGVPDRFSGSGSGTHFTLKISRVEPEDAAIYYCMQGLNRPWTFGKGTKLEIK
4995_E20 (PGT-142) (antibody), sequence (VH): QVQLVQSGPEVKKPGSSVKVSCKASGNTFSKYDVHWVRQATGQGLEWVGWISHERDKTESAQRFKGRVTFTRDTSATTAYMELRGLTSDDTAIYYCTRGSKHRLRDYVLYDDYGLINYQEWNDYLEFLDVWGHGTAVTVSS

Substance	IC50, single-round pseudovirus neutralization [1] [µg/mL]	IC50 (µg/mL), pseudovirus neutralization [2] [µg/mL]	IC50 (µg/mL), pseudovirus neutralization [3] [µg/mL]	IC50 (µg/mL), pseudovirus neutralization [4] [µg/mL]	IC50 (µg/mL), pseudovirus neutralization [5] [µg/mL]	IC50 (µg/mL), pseudovirus neutralization [6] [µg/mL]	IC50 [7] [µg/mL]	IC50, pseudovirus neutralization [8] [µg/mL]
4980_N08 (PGT-143) (antibody)	> 50	4.77	> 50	10.2	> 50	0.107		
VRC01 (antibody)	0.707	0.06	0.576	0.346	0.553	0.124	1.72	0.032
4970_K22 (PGT-144) (antibody)	> 50	> 50	> 50	> 50	> 50	9.97		
PGT-143 (4980_N08) (antibody)							0.135	0.701
PGT-144 (4970_K22) (antibody)							3.55	> 50
4993_K13 (PGT-141) (antibody)	> 50	20.3	> 50	1.28	> 50	0.164		
4995_P16 (PGT-145) (antibody)	> 50	0.041	1.6	0.136	> 50	0.205		
PGT-141 (4964_G22; 4993_K13) (antibody)							0.101	0.785
PGT-145 (4995_P16) (antibody)							1.46	1.02
PGT-142 (4995_E20) (antibody)							0.08	0.404
4995_E20 (PGT-142) (antibody)	> 50	5.95	> 50	4	> 50	0.125		
